Test results as given in patent publication US6777176.

Key:
[1] = target: enzyme I (phosphoenolpyruvate-protein-phosphatase, EC 2.7.3.9) of the bacterial phosphotransferase system (E. coli) (UniProt P08839); assay: cell-based or functional assay
[2] = tested on: peptides from the phage display library which became phosphorylated by Enzyme I

Substance	uncoupling P1/peptide/h [1] [P1/peptide/h]	phosphorylation of phage displayed peptides by enzyme I with [32P]phosphoenolpyruvate, fold over the average [2]	rate of phosphorylation by enzyme I (pyruvate formation coupled to lactate dehydrogenase) [2]
HPr protein (from UniProt P0AA04 1-85)	2.7		
enzyme I (phosphoenolpyruvate-protein-phosphatase, EC 2.7.3.9) of the bacterial phosphotransferase system		phosphorylated 25 to 30 fold over the average	The inhibitory peptides are phosphorylated by enzyme I at a much slower rate than Hpr.
